Laboratory results taken from a protein production outcome set (Wang et al. 2014).

Assay: label from the status in PepcDB records

Row | Sequence | protein production
1 | MHDTIPEYIRDGAQDMLAQGGVQKLGLKKEGGTWEIDGSIQSDDFQIYVSRISLTPSEHRASYVCNCSDSFSGVCRHVAATALKMLSTFDTRPGSDEPAKPRVEWRQSFRSFFSTALDPEPGKHYLIFRFHPEPGRLTVAFFRARQNKSGLSTVHNEITLEQIINNPEWCELSPQLVDVAKQVGQFVDYYGHRIEIPDGLVSWFFWAIRREYYLFWLDTESPCRIENTALGLKLHPRLGDDGLSFDVMLYREGKPPFSILGGENAATFHGQMPMWVCWNRSFYPVQTSLPPQLVQDLIRQHPSIPQEDMSEFLDRVWTRLPSSDLYGQEDFLKLMEPVFQPARYSPKLFLDEEGSLLTLEIQNVYETAHGEFYLAGPNPDFQTGSYTFEGTTFLIRRHQDEEAGLITQLSEMRFQPRSSRLWFLEPEEAIAFLLDAYPRLVEKYRVYGEKALSRYKVRLSQPVITAKVESNEEEKWFSLDIDVEYDGQKVPIDKIWKAWSQGKRYVQLKDGSYTSLPETWLERLGHKLQALGLDPDKPPQKQFKQFEAPVLDSLLDDLPGAETDSFWNSLRDKIRTFREIRAVNAPRGLNATLRGYQMQGLAYLNFLREYGFGGILADEMGLGKTVQTLSFVQHMVESGKIGPNLIVVPTSVLPNWEREAQKFVPELKRLIIYGTRREGMFKLIDESDLVVTTYALLRRDLEELQNHTFNCIILDEAQNIKNPNTITARSVRRIKADMRLCLSGTPIENNLFELWSLFEFLMPGFLGSQHAFQRGVIKPIKDGDCETLDYLRTRVRPFILRRTKSEVAKDLPPKIENTYYCALAEEQAELYTALARKLKEQVLADVDEKGLAKSQMSILDALLKLRQICCHPRLLKLDMPGFSTNLPSGKFDAFKDMITDIVEEGHKVLVFSQFVQMLHIIRSWLQISGTPFCYLDGTSKDRFEQVDKFNNSPDIPIFLISLKAGGTGLNLTSADYVIHYDPWWNPAVESQATDRTHRIGQTRQVFSYKLICQNTVEEKILKLQDMKRGVAEAIIPGQETWKSLTREDLEMLFDI | failed
2 | MTTPEGGARKPRIGIMGEFSAGKSTLSNLLLGQRILPEQVTATRLPPVWIVQGDKPAQRAALDGSLHPMSLVDLEEISLEETLYVKIGIDAPVLDECDLIDFPGISDPNMPSEVWERMLAEVDSVLWCTHATQAWRQSEAAAWGMVPEAVRQRSLLLITRFDKLTTPLDKLRVQTRVARETEGLFAGVCPISLTEALAAAPDSPEWEASGAETFADALEAVVRAAACGGLPEAMPAQTQLTAPAAPEPAEPSTSAPQPAPGRVMPRRVRPKGETRTPRPSARPQAADQDLSALRREMQET | failed
3 | MTGSCLCQGIRYEISGHGLGDIIECHCQRCRKANGTAYATNTPVHVDDFKIVQGEHLLKKYQSTPTTQRCFCSECGSPIMSIKTDTPEYYRLRIGTLDTKIEQKPSMHIFAAHKAEWDTITDDLPQYAERP | failed
4 | MSAVMARRIAVVGGGVAGLMAAWWASNYGYDVVVYEADLSSLTATRVSAGIIDPTIDISLAPVALETLSLLKRLGLGLESRLLWLHERGSCRRLERLLSDKGIIERSVAGEESIRLGRYTVNLGYGEELHVINTIIVDTGEFYSLASSASNVDIVEDSVEYVGCGSVGLKRGGSREFDAIIVAAGPWTGFISGLQALSNMLRVYRCEALIIRAGGGPFAVVDDILDFYLSIHASGDGVLGNGCCVEIASPLDGYRYSGDVLDAVISRSIERLEGLGEAELITPVSAPCVVGRDARPVLGMLPGCSRVYLLAGLDGVGVTLAPVLARLVVESIATGSQEPIPPEMAASRPTSSSESVVKEPVEEC | failed
5 | MKSRREQSIEEAIVANYLKMMIDNVNVWPRHFLRSEDVYCKNPWTLFVTRDPIILHFGRYFFVNRSVNSGLTDGCEYGCWRIIGRDRVIKSVTTGKILGLKKVYKFCETDRKPKSVFKFLEKEKRRVRDRRIWAMEEYRFASTWKQDYVICKIRRLYPQPFDYMLAQHIRGYYK | failed
6 | MSLGHIIVTGAGSGLGRALTIGLVERGHQVSMMGRRYQRLQQQELLLGNAVIGIVADLAHHEDVDVAFAAAVEWGGLPELVLHCAGTGEFGPVGVYTAEQIRRVMESNLVSTILVAQQTVRLIGERGGVLANVLSSAAQVGKANESLYCASKWGMRGFLESLRAELKDSPLRLVNLYPSGIRSEFWDNTDHVDPSGFMTPEDAAAYMLDALEARSSCHVTDLFIGRNEGHHHHHH | not failed
7 | MSNDKTPNSPESTPSTPADEVLDGLLAELSPEASAEPNPADDSGNPFTTIFKSVTDKATELGSAATEGLSNLQESATELAAETKEKFGNFAEAHKDDLGQLLTSAQGKAASFGEAVSDRFGELGESATESFGNLQEGAAGFAAGAKEKFGDFAEASQEKLSEIAETTQDKAASFGEAVSDRVEGLRGSAAEKLGNLQEGASELAAGAKEKFGDFAEASQEKLSEIVETTQGKAASFGEAVSDRVEGLRGSAAEKLGNLQEGASELAAGAKEKFGDFAEASQEKLSEIVETTQGKAASFGEAVSDRFGELGESAAEKLSNLQEDASEFAASAQEKLSTFTNARQEELGNLTKSAQSDVQDTANTVSEQLEQAPEAVSTAADSLKGAQEKLEAAVVASQSVAEKLKPAEVQSQSSLQLASESPSPSFFGRLLRKIKGFFRKLFG | failed
8 | MDKKENTVVLFPQLSERYIDEGFLALKERKFEDALRCFEILRQYNAETEQTELASVICLLELKRMEEAKDKCEQLLKTGVVLFGDILETYVTILVQTNDYEGVIETVEKVLQTKDIMPDQKEKLAQLALFAEGMLNEGDASLVDSNFELDEFTNEIFGENFGQKLRAIQRLSLKDLDLALPVLKKFLIEEEQHPYLKTSILYKMIESQVEEEIEVEKFGNTIKVIPAFTGHNEEQSNNIIHKLSSRLEQNYPDIFEAMVTYWKELQISVFPFALLMDKEEIWSAVLERIGRKRFGLAIDEEELMAAYNIELEEFHIAYQWLLRVEREGYLPV | failed
9 | MSLCRWAAYHGTPIFLEDVISRPGHSLIAQSAHAEECKTATNGDGFGVAWYDARPEPGLYRDVYPAWSDPNLRAVAHHVRSGLFLSHVRASTGSCISRNNCHPFAARRWCFMHNGQVGGFEAFRKQADMAIADEFYTYRKGSTDSEVLFLLALSEGLEHDPHGALARAIARLEGLSRAHGTTPHMRLSAAFSDGQTLYAARYSSDHIAPSVYYRYSHARQGWAVVSEPLETDEGDWTELRPGRMLTIGAEGAAERDFAPADLGRAAEGHHHHHH | not failed
10 | MNTLLLTAGRVLLALYFLIPGIMKFVSWDMHIQLMEKHEMPFVPVLLGLAGVFQIGAAILLIANRFTWIVALLLAGLVLVINVSLHDFWNYSGMEGAHEMQNFIKNLGIFAGLLVLSGHSMPECCKTKKKS | failed
11 | MSDFSNELHTQIQYSLIEKLSESERRYRELVDSLREIVFKCDRLGNLNFLNRAWTNTLGYGITDAIGSALSNFIDLDDQYLWSETLEKLQTGVEVCQKLRFYHQTGAIVWLELSAQPQSETEFSGSLINITDVYDELRLRKHAEGLLKQTNEELEARVEQRNIELIQANHDLKVTLDKLKYTQAQLVQTEKMSSLGQLVAGIAHEINNPVNFI | failed
12 | MSGARNVEQWQDFIGSCLDFRPADGVFRIARDMFTEPELFDLEMELIFEKNWIYACHESELPNNHDFITMRAGRQPMIITRDGEGRLNALVNACQHRGTTLTRVGKGNQSTFTCPFHAWCYKSDGRLVKVKAPGEYDEGFDKATRGLKKARIESYKGFVFISLDVAADNSLEDFLGDARIFFDMMVAQSPDGELEVLPGKSAYTYDGNWKLQNENGLDGYHVSTVHYNYVATVQHRQQVNADSGAGSSATLDYSKLGAGDASTDDGWFAFENGHSVLFSEMPNPAVRSGYASIMPRLVAEHGQAKAEWMMHRLRNLNIYPSLFFLDQISSQLRIIRPIAWNKTEIISQCIGVKGESDADRENRIRQFEDFFNVSGMGTPDDLVEFREAQRGFQGRLERWSDISRGRQHWVSGPTANSENLGIQPAMTGTEITHEGLYVNQHRNWQKFLLDGLQRRPLKLREV | failed
13 | MFSLKMRASSNGNHVSGAERLVKEEQIEEISSELIKRAMNHENGVPDFINLKVEKVTENINYIEHLKIKTINSNSKETSREFAINILKKELENYFLKNGKDTKKIDELIDSAFKIIDAGNMRGAAILDLDGNRLEKSSDRGIRVRNIDTAEELSKKILKDGSLTERTVDAIAIATKVVNCDIIAELCTSDNFSYTTGYVATKDGYFRILNLKDSGQVGGRVFFAESSDIDELYDKLENMPVIVY | failed
14 | MNTSGIGGYFRQGLFGRDLLASVVVFLVALPLCMGIAIASGMPPAAGLITGIVGGLVVGFLAGSPLQVSGPAAGLAVLVFELVREHGAVALGPVILVAGAIQLIAGLCRAGVWFRMTSPAVVAGMLSGIGILIVASQAHVLMDAAPKARGLENFAALPGVLWQAISEGTGRNALFVGLATIGIILAWDKLRPQRLRFLPGALIAVVVVTATVQLQGLNVNKVDVPTNLFSAISIPSISDIFGVFNHTLLVSAVTFAFIASAETLLSAAAVDRMHQGARTQYDRELAAQGVGNMLCGFLGALPMTGVIVRSAANVQAGAATRASTILHGSWLLVFAMLLPWLLRMTPVACLAGILVYTGVKMIKIGQVKELATYGRGTAAIYLATTFAIVATDLLTGVLIGFGLSLFRLALHSSRLKVEVREHADKKDEMHLTLQGSATFLKVPAMARTLESVPPNTALHLDVAKLHHVDHACIELLRDWSRNAASRGCELVVDWKELDRRVEGQPTVDGVLVEQRVEQAKAA | failed
15 | MIFYFSGTGNSKWIAEQIAKAQNEVLVFMPNAIRDGIEEFVLADDEKVGFVFPVYSWGPPLSVLRFLDWITLSNYHSQYVFFVCSCGDDTGLTEELFRRALSRKGMECNAGFSVAMPNNYVLLPGFDVDKKELEKKKLDEAVGRVEEINDSITGKKIGFHCNEGSFPWFKTKVLNPLFNRFMTSAKPFYATDDCIGCKRCERICPVGNVVMIGWRPVWGMDCTSCLACYHVCPKHAVQYGRRTKRKGQYLNPNVSISHEAAAQLEHHHHHH | not failed
16 | MTDTRPAQSLGPGLQPETRSLGDEPVRLVDTTMLYAPRSGGVRRYLSSKRAWLASHRPDVRHTLVVPGARDFHDGRGQVSIYAAPLPFGAGYRWPVVKQTWMERLIRQQPDLIEAGDPYTPGLAALRAGDALGVPVVGFCHTDLGKLAALHIGDWAEKPVQKRWAAIYRQFDQAVAPSRFIAGRLIEAGVRDAIGLPLGVDTAIFHPERGDRDGLRRRLGLSPKDRLLVFAGRPAREKKLDVLVAAVERLGDPYKLLFVGAGGGAPVSDRTLCIDYVRDPVELASILASCDAFVHANDNEPFGLIVLEAMACGLPVVGVSAGGVAESVDAAVGQLAVASEATAFADAIEALFERDVTVVGEAARRRAVERHGWDAVFTELCLIYDRLTGRRAFSSASAHAGH | failed
17 | MEDKPLGILRVHVKRGINLAIRDATTSDPYVVITLANQKLKTRVINNNCNPVWNEQLTLSIKDVNDPIRLTVFDKDRFSGDDKMGDAEIDFRPFLEAHQMELDFQKLPNGCAIKRIRPGRTNCLAEESSITWSNGKIMQEMILRLKNVECGEVELMLEWTDGPGCKGLGREGSKKTPWMPTKRLD | failed
18 | MLFPLILQRPMLSTPTLPRKTFAFLLGGVLLVGLVACGSSTPMAPASSASSALESAAADSLLRQVKTQIREATDEGSLDSLKQARAWAKQATGGDRAALAHYYAALADYRMSNRLPEEDEARRGRVIEDAIGHLKRATEINGTMADAWALLSGYYGQMMGMNPMQGMSLGPKANEAMKRAKEHGPNNPRVWIIDGTSDFYTPGMFGGDKEKALTKFEKAARLAEQGSPDDPLMPGWGHAEAHAWVGVAHMEAERYDPARTAFEAALDLNPDYGWVRSVLLPRLEQQAG | failed
19 | SASLPIRHLTPRDLTACADLSEDRGWPREEHKWGLLLAAGKGYGIDDPEGGLVSACVVTEYGPQDRPDLGAIGMVLVAERHARQGIGRRLMRHVMAEMATTPLTLCATPFGRPLYEELGFKVVGHSEMVRGYFAP | failed
